Measured values reported in article PMC3273806 (Nucleic Acids Research, 2011).

Tests used:
[1] = target: human RAD6A (human, UniProt P49459 1-152); experiment: pull-down
[2] = target: human RAD18, wild type, His-tagged or FLAG-tagged (human, UniProt Q9NS91 1-495); experiment: pull-down

binding result [1] | binding result [2] | Binder
binds | – | ^HisRAD18^ΔN1 (residues 113-495) (domain or fragment) AVKVYTPVASRQSLKQGSRLMDNFLIREMSGSTSELLIKENKSKFSPQKEASPAAKTKETRSVEEIAPDPSEAKRPEPPSTSTLKQVTKVDCPVCGVNIPESHINKHLDSCLSREEKKESLRSSVHKRKPLPKTVYNLLSDRDLKKKLKEHGLSIQGNKQQLIKRHQEFVHMYNAQCDALHPKSAAEIVREIENIEKTRMRLEASKLNESVMVFTKDQTEKEIDEIHSKYRKKHKSEFQLLVDQARKGYKKIAGMSQKTVTITKEDESTEKLSSVCMGQEDNMTSVTNHFSQSKLDSPEELEPDREEDSSSCIDIQEVLSSSESDSCNSSSSDIIRDLLEEEEAWEASHKNDLQDTEISPRQNRRTRAAESAEIEPRNKRNRN
– | binds | RAD18^ΔC1 (residues 1-341), His-tagged or FLAG-tagged (domain or fragment) MDSLAESRWPPGLAVMKTIDDLLRCGICFEYFNIAMIIPQCSHNYCSLCIRKFLSYKTQCPTCCVTVTEPDLKNNRILDELVKSLNFARNHLLQFALESPAKSPASSSSKNLAVKVYTPVASRQSLKQGSRLMDNFLIREMSGSTSELLIKENKSKFSPQKEASPAAKTKETRSVEEIAPDPSEAKRPEPPSTSTLKQVTKVDCPVCGVNIPESHINKHLDSCLSREEKKESLRSSVHKRKPLPKTVYNLLSDRDLKKKLKEHGLSIQGNKQQLIKRHQEFVHMYNAQCDALHPKSAAEIVREIENIEKTRMRLEASKLNESVMVFTKDQTEKEIDEIHSK
